How the values were obtained:
Mushroom tyrosinase [1] = biological target: T1, Mushroom tyrosinase (mushroom, UniProt C7FF04 1-392); experiment: cell-based or functional assay
Mushroom tyrosinase [2] = biological target: T1, Mushroom tyrosinase; experiment: enzyme kinetics on mushroom tyrosinase, Lineweaver-Burk / nonlinear regression, differs from Table 4
Description: Tyrosinase inhibitory activity was determined in vitro using L-tyrosine or L-dopa as the substrate following a modified method from Piao, L. Z., Park, H. R., Park, Y. K., Lee, S. K., Park, J. H., and Park, M. K. (2002) Chem Pharm Bull (Tokyo) 50, 309-311. The concentration of enzyme, substrate and inhibitor was denoted as [E], [S] and [I], respectively. The experiment was conducted in a 96-well flat-bottomed plate. Each well contained 80 μl of 0.067 M potassium phosphate buffer (pH 6.8), 40 μl of 5 mg/ml L-tyrosine dissolved in 0.067 M potassium phosphate buffer (pH 6.8), 40 μl of the different concentrations of inhibitors dissolved in the same buffer, and 40 μl of 480 units/ml mushroom tyrosinase solution. The final volume of each well was 200 μl, containing 1 mg/ml [S], 96 units/ml [E] and varying concentrations of [I] ranging from 1 μM to 10 mM. For the negative control wells, the inhibitors were substituted with buffer solution and adjusted to the total volume of 200 μl. HQ served as a positive control to calibrate the assay as a wide range of IC₅₀ values has been previously reported (Neeley, E., Fritch, G., Fuller, A., Wolfe, J., Wright, J., and Flurkey, W. (2009) Int J Mol Sci 10, 3811-3823). The assay mixture was incubated at 37° C. The optical density of the reaction mixtures, which correlates with the amount of dopachrome produced, was measured at 475 nm using a Varioskan microplate reader (Thermo Electron Corporation, San Jose, Calif.) at different time periods. For assessment of the 2nd step of melanin synthesis, we used L-dopa as the substrate and freshly extracted human tyrosinase as previously described (Abu Ubeid, A., Zhao, L., Wang, Y., and Hantash, B. M. (2009) J Invest Dermatol 129, 2242-2249).
The kinetics and mode of inhibition for P16-18 (SEQ ID NO: 1, 2 and 3 respectively) and HQ was determined using a standard assay (Pomerantz, S. H. (1966) J Biol Chem 241, 161-168). As illustrated by Lineweaver-Burk plots shown in FIG. 3, the Vₘₐₓ was independent of […] for HQ and all 3 octapeptides, whereas the Kₘ was altered.

T1 sequence (C7FF04 1-392): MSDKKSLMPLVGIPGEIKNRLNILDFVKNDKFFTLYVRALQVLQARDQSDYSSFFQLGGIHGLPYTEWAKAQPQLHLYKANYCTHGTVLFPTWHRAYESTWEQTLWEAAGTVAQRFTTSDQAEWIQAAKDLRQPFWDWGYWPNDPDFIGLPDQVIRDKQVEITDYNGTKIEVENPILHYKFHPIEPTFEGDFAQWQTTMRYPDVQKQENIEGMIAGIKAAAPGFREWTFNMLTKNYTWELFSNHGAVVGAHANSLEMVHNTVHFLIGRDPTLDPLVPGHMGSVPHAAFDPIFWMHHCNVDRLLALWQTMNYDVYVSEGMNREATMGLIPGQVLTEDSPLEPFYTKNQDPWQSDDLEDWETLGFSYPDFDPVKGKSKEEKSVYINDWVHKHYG

With RRYWYWRR (Synthetic octapeptide) [P18 peptide] the “IC50 [µM], mushroom tyrosinase inhibition (dopachrome OD 475 nm, L-tyrosine substrate)” value (Mushroom tyrosinase [1]) was 282 µM and the Ki (Mushroom tyrosinase [2]) was 179 µM.

In the case of RRFVLL [P14 peptide], the “IC50 [µM], mushroom tyrosinase inhibition (dopachrome OD 475 nm, L-tyrosine substrate)” value (Mushroom tyrosinase [1]) is reported as 1770 µM.

RRVAL [P13 peptide] was tested, and the “IC50 [µM], mushroom tyrosinase inhibition (dopachrome OD 475 nm, L-tyrosine substrate)” value (Mushroom tyrosinase [1]) was 2200 µM.

In the case of RRRYWYYR (Synthetic octapeptide) [P17 peptide], the “IC50 [µM], mushroom tyrosinase inhibition (dopachrome OD 475 nm, L-tyrosine substrate)” value (Mushroom tyrosinase [1]) is reported as 398 µM and the Ki (Mushroom tyrosinase [2]) is reported as 190 µM.

RRWWRRYY (Synthetic octapeptide) [P16 peptide] was tested, and the “IC50 [µM], mushroom tyrosinase inhibition (dopachrome OD 475 nm, L-tyrosine substrate)” value (Mushroom tyrosinase [1]) was 238 µM and the Ki (Mushroom tyrosinase [2]) was 167 µM.

From patent publication US20150118286A1 (ELIXIR INSTITUTE OF REGENERATIVE MEDICINE, published 2015)
